T1: HPV E7 peptide on HLA-A*11:01 (human)
T1 peptide: IVCPICSQK

B1: TCR095 (TCR, V domains shown)
Valpha: GIQVEQSPPDLILQEGANSTLRCNFSDSVNNLQWFHQNPWGQLINLFYIPSGTKQNGRLSATTVATERYSLLYISSSQTTDSGVYFCAVEGDNAGGTSYGKLTFGQGTILTVHP
Vbeta: EAQVTQNPRYLITVTGKKLTVTCSQNMNHEYMSWYRQDPGLGLRQIYYSMNVEVTDKGDVPEGYKVSRKEKRNFPLILESPSPNQTSLYFCASSWSTSYGYTFGSGTRLTIV
B2: TCR074 (TCR, V domains shown)
Valpha: AQKITQTQPGMFVQEKEAVTLDCTYDTSDPSYGLFWYKQPSSGEMIFLIYQGSYDQQNATEGRYSLNFQKARKSANLVISASQLGDSAMYFCAMRIDAGGTSYGKLTFGQGTILTVHP
Vbeta: DAMVIQNPRYQVTQFGKPVTLSCSQTLNHNVMYWYQQKSSQAPKLLFHYYDKDFNNEADTPDNFQSRRPNTSFCFLDIRSPGLGDAAMYLCATSRDRVNTGELFFGEGSRLTVL
B3: TCR123 (TCR, V domains shown)
Valpha: SQKIEQNSEALNIQEGKTATLTCNYTNYSPAYLQWYRQDPGRGPVFLLLIRENEKEKRKERLKVTFDTTLKQSLFHITASQPADSATYLCALAGYQKVTFGTGTKLQVIP
Vbeta: SQTIHQWPATLVQPVGSPLSLECTVEGTSNPNLYWYRQAAGRGLQLLFYSVGIGQISSEVPQNLSASRPQDRQFILSSKKLLLSDSGFYLCAWSLRTSGSEQFFGPGTRLTVL

Target: T1, HPV E7 peptide on HLA-A*11:01
Test: multimer staining

Binding result, recognises:
B1
B2
B3

Source: patent publication US20250325667A1 (published 2025)
